In one assay the target is T1, D19A.
T1 construct: single alanine mutant of hCCR8; also called hCCR8 D19A
T1 receptor chain: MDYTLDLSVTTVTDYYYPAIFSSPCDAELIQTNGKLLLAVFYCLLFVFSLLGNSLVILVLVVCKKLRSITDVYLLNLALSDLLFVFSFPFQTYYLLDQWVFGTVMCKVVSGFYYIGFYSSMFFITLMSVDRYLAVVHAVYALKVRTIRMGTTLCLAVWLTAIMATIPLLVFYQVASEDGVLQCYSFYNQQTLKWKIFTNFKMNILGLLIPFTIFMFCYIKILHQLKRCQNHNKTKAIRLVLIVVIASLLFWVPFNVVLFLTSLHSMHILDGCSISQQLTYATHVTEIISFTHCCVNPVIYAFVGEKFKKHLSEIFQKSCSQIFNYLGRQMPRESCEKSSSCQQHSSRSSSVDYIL
Description: flow cytometry, HEK293 transfected with hCCR8 D19A with C-terminal FLAG; sheet prints [huCCR8]=0.02 ug/ml. How it is done:
(§1) FIGS. 16A-16B depict the epitope maps for hu.Ab5.H13L1 (FIG. 16A) and hu.Ab4.H12L3 (FIG. 16B) mAbs.
(§2) To epitope map fucosylated hu.Ab5.H13L1, the binding to alanine point mutations in human CCR8 was analyzed by flow cytometry.

Another assay concerns the target T2, Y17A.
T2 construct: single alanine mutant of hCCR8; also called hCCR8 Y17A
T2 receptor chain: T1 receptor chain with Y17A, A19D
Description: flow cytometry, HEK293 transfected with hCCR8 Y17A with C-terminal FLAG; sheet prints [huCCR8]=0.02 ug/ml. How it is done:
as §1, §2
For orientation: In flow cytometry, cells or beads pass a laser one at a time.

The target of a further assay is T3, P24A.
T3 construct: single alanine mutant of hCCR8; also called hCCR8 P24A
T3 receptor chain: T1 receptor chain with A19D, P24A
The assay is described as follows: flow cytometry, HEK293 transfected with hCCR8 P24A with C-terminal FLAG; sheet prints [huCCR8]=0.02 ug/ml.

The target in another assay is T4, V9A.
T4 construct: single alanine mutant of hCCR8; also called hCCR8 V9A
T4 receptor chain: T1 receptor chain with V9A, A19D
The assay is described as follows: flow cytometry, HEK293 transfected with hCCR8 V9A with C-terminal FLAG; sheet prints [huCCR8]=0.02 ug/ml.

The target of a further assay is T5, S8A.
T5 construct: single alanine mutant of hCCR8; also called hCCR8 S8A
T5 receptor chain: T1 receptor chain with S8A, A19D
Description: flow cytometry, HEK293 transfected with hCCR8 S8A with C-terminal FLAG; sheet prints [huCCR8]=0.02 ug/ml.

The target of another assay is T6, T11A.
T6 construct: single alanine mutant of hCCR8; also called hCCR8 T11A
T6 receptor chain: T1 receptor chain with T11A, A19D
Description: flow cytometry, HEK293 transfected with hCCR8 T11A with C-terminal FLAG; sheet prints [huCCR8]=0.02 ug/ml. How it is done:
as §1, §2

In assay [1] the target is T7, human CCR8.CCR5 chimera ECL2 (human, UniProt P51681 167-189).
T7 construct: domain: ECL2; Flanking CCR8 ranges derived from the stated replaced range 172-193; on transfected 293 cells; also called ECL2 chimera
Description: flow cytometry, 293 cells transfected with the CCR8.CCR5 chimera ECL2 with C-terminal FLAG. How it is done: To epitope map fucosylated hu.Ab4.H12L3, the binding to chimeric forms of human CCR8 was analyzed by flow cytometry.

Positions count from the first letter of the chain named.

Here are results for 2 molecules from patent US20230049152A1 (Genentech, published 2023).

B1: hu.Ab5.H13L1 (antibody, human IgG1, kappa)
heavy: not shown
light: DIQVTQSPSSLSASVGDRVTITCQASENIANALAWYQQKPGKPPKFLIYGASNLASGVPSRFSGSGSGTDFTFTISSLQPEDIATYYCQQAYYGNSFVEGTFGGGTKVEIKRTVAAPSVFIFPPSDEQLKSGTASVVCLLNNFYPREAKVQWKVDNALQSGNSQESVTEQDSKDSTYSLSSTLTLSKADYEKHKVYACEVTHQGLSSPVTKSFNRGEC
notes: fucosylated human IgG1; also called Ab5 variant
Consider B1, for which the binding result with D19A, with Y17A, in the assay with P24A, in the assay with V9A, with S8A and with T11A was “binds” each time.

B2: hu.Ab4.H12L3 (antibody, human IgG1, kappa)
heavy: not shown
light: DYQMTQSPSSLSASVGDRVTITCQASQSISSYLSWYQQKPGKAPKLLIYKASTLASGVPSRFSGSGSGTDFTLTISSLQPEDFATYYCQQGYTSSNIDNIFGGGTKVEIKRTVAAPSVFIFPPSDEQLKSGTASVVCLLNNFYPREAKVQWKVDNALQSGNSQESVTEQDSKDSTYSLSSTLTLSKADYEKHKVYACEVTHQGLSSPVTKSFNRGEC
notes: fucosylated human IgG1; also called huCCR8-Ab4.H12L3.hIgG1; Ab4 variant
On to B2, for which the binding result in assay [1] was “no binding”.
